According to patent US20240391954A1, “MC4R AGONIST PEPTIDES” (The Regents of the University of Michigan, priority 2021, published 2024):
Starred links: 1 amine or outer side, 2 acyl side, 3 side chain; linkers in the order of their positions; H or OH if unused. Positions of bridges follow the written chain, without caps; N, C: chain ends. Non-standard residues stand in square brackets, D forms with d. Primed or numbered codes have the meaning given here. dTyr(4-OMe)″ = O-methyl-D-tyrosine, COc1ccc(C[C@@H](N[*:1])C(=O)[*:2])cc1; 1Nal = N[C@@H](Cc1cccc2ccccc12)C(=O)O; d1Nal = N[C@H](Cc1cccc2ccccc12)C(=O)O; 2Pal = N[C@@H](Cc1ccccn1)C(=O)O; 3Pal = N[C@@H](Cc1cccnc1)C(=O)O; 4Pal = N[C@@H](Cc1ccncc1)C(=O)O; Cit = NC(=O)NCCC[C@H](N)C(=O)O; Nle = CCCC[C@H](N)C(=O)O; Orn = NCCC[C@H](N)C(=O)O; Aib = CC(C)(N)C(=O)O

B1: CTX-1206 (peptide)
peptide: Ac-CGH[dF]RWC-NH2
modifications: disulfide 1-7
SMILES: CC(=O)N[C@H]1CSSC[C@@H](C(N)=O)NC(=O)[C@H](Cc2c[nH]c3ccccc23)NC(=O)[C@H](CCCNC(=N)N)NC(=O)[C@@H](Cc2ccccc2)NC(=O)[C@H](Cc2c[nH]cn2)NC(=O)CNC1=O
B2: CTX-1617 (peptide)
peptide: Ac-R[Nle]C[Orn][dF]RWC-NH2
modifications: disulfide 3-8
SMILES: CCCC[C@H](NC(=O)[C@H](CCCNC(=N)N)NC(C)=O)C(=O)N[C@H]1CSSC[C@@H](C(N)=O)NC(=O)[C@H](Cc2c[nH]c3ccccc23)NC(=O)[C@H](CCCNC(=N)N)NC(=O)[C@@H](Cc2ccccc2)NC(=O)[C@H](CCCN)NC1=O
B3: CTX-1299 (peptide)
peptide: Ac-RC[Aib][Cit][dTyr(4-OMe)″]RFC-NH2
modifications: disulfide 2-8
B4: CTX-1298 (peptide)
peptide: Ac-RC[Aib]R[dTyr(4-OMe)″]RFC-NH2
modifications: disulfide 2-8
B5: CTX-1619 (peptide)
peptide: Ac-R[Nle]C[2Pal][dF]RWC-NH2
modifications: disulfide 3-8
SMILES: CCCC[C@H](NC(=O)[C@H](CCCNC(=N)N)NC(C)=O)C(=O)N[C@H]1CSSC[C@@H](C(N)=O)NC(=O)[C@H](Cc2c[nH]c3ccccc23)NC(=O)[C@H](CCCNC(=N)N)NC(=O)[C@@H](Cc2ccccc2)NC(=O)[C@H](Cc2ccccn2)NC1=O
B6: CTX-1292 (peptide)
peptide: Ac-RC[Aib]R[dF]RWC-NH2
modifications: disulfide 2-8
B7: CTX-1616 (peptide)
peptide: Ac-R[Nle]CR[dF]R[dW]C-NH2
modifications: disulfide 3-8
B8: CTX-1606 (peptide)
peptide: Ac-RC[Aib][4Pal][dF]RFC-NH2
modifications: disulfide 2-8
SMILES: CC(=O)N[C@@H](CCCNC(=N)N)C(=O)N[C@H]1CSSC[C@@H](C(N)=O)NC(=O)[C@H](Cc2ccccc2)NC(=O)[C@H](CCCNC(=N)N)NC(=O)[C@@H](Cc2ccccc2)NC(=O)[C@H](Cc2ccncc2)NC(=O)C(C)(C)NC1=O
B9: CTX-1609 (peptide)
peptide: Ac-R[Nle]C[Cit]FRWC-NH2
modifications: disulfide 3-8
SMILES: CCCC[C@H](NC(=O)[C@H](CCCNC(=N)N)NC(C)=O)C(=O)N[C@H]1CSSC[C@@H](C(N)=O)NC(=O)[C@H](Cc2c[nH]c3ccccc23)NC(=O)[C@H](CCCNC(=N)N)NC(=O)[C@H](Cc2ccccc2)NC(=O)[C@H](CCCNC(N)=O)NC1=O
B10: CTX-1604 (peptide)
peptide: Ac-RC[Aib][2Pal][dF]RFC-NH2
modifications: disulfide 2-8
SMILES: CC(=O)N[C@@H](CCCNC(=N)N)C(=O)N[C@H]1CSSC[C@@H](C(N)=O)NC(=O)[C@H](Cc2ccccc2)NC(=O)[C@H](CCCNC(=N)N)NC(=O)[C@@H](Cc2ccccc2)NC(=O)[C@H](Cc2ccccn2)NC(=O)C(C)(C)NC1=O
B11: CTX-1601 (peptide)
peptide: Ac-RC[Aib]R[dF]RFC-NH2
modifications: disulfide 2-8
B12: CTX-1297 (peptide)
peptide: Ac-RC[Aib]R[dTyr(4-OMe)″]R[dW]C-NH2
modifications: disulfide 2-8
B13: CTX-1294 (peptide)
peptide: Ac-RCG[Cit][dF]RWC-NH2
modifications: disulfide 2-8
B14: CTX-1620 (peptide)
peptide: Ac-R[Nle]C[3Pal][dF]RWC-NH2
modifications: disulfide 3-8
SMILES: CCCC[C@H](NC(=O)[C@H](CCCNC(=N)N)NC(C)=O)C(=O)N[C@H]1CSSC[C@@H](C(N)=O)NC(=O)[C@H](Cc2c[nH]c3ccccc23)NC(=O)[C@H](CCCNC(=N)N)NC(=O)[C@@H](Cc2ccccc2)NC(=O)[C@H](Cc2cccnc2)NC1=O
B15: CTX-1610 (peptide)
peptide: Ac-R[Nle]CH[1Nal]RWC-NH2
modifications: disulfide 3-8
SMILES: CCCC[C@H](NC(=O)[C@H](CCCNC(=N)N)NC(C)=O)C(=O)N[C@H]1CSSC[C@@H](C(N)=O)NC(=O)[C@H](Cc2c[nH]c3ccccc23)NC(=O)[C@H](CCCNC(=N)N)NC(=O)[C@H](Cc2cccc3ccccc23)NC(=O)[C@H](Cc2c[nH]cn2)NC1=O
B16: CTX-1611 (peptide)
peptide: Ac-R[Nle]CR[d1Nal]RWC-NH2
modifications: disulfide 3-8
SMILES: CCCC[C@H](NC(=O)[C@H](CCCNC(=N)N)NC(C)=O)C(=O)N[C@H]1CSSC[C@@H](C(N)=O)NC(=O)[C@H](Cc2c[nH]c3ccccc23)NC(=O)[C@H](CCCNC(=N)N)NC(=O)[C@@H](Cc2cccc3ccccc23)NC(=O)[C@H](CCCNC(=N)N)NC1=O
B17: CTX-1290 (peptide)
peptide: Ac-RC[Aib][Cit][dF]R[dW]C-NH2
modifications: disulfide 2-8
B18: CTX-1608 (peptide)
peptide: Ac-R[Nle]C[Cit][dF]R[dW]C-NH2
modifications: disulfide 3-8
SMILES: CCCC[C@H](NC(=O)[C@H](CCCNC(=N)N)NC(C)=O)C(=O)N[C@H]1CSSC[C@@H](C(N)=O)NC(=O)[C@@H](Cc2c[nH]c3ccccc23)NC(=O)[C@H](CCCNC(=N)N)NC(=O)[C@@H](Cc2ccccc2)NC(=O)[C@H](CCCNC(N)=O)NC1=O
B19: CTX-1605 (peptide)
peptide: Ac-RC[Aib][3Pal][dF]RFC-NH2
modifications: disulfide 2-8
SMILES: CC(=O)N[C@@H](CCCNC(=N)N)C(=O)N[C@H]1CSSC[C@@H](C(N)=O)NC(=O)[C@H](Cc2ccccc2)NC(=O)[C@H](CCCNC(=N)N)NC(=O)[C@@H](Cc2ccccc2)NC(=O)[C@H](Cc2cccnc2)NC(=O)C(C)(C)NC1=O
B20: CTX-1602 (peptide)
peptide: Ac-RC[Aib][Orn][dF]RFC-NH2
modifications: disulfide 2-8
SMILES: CC(=O)N[C@@H](CCCNC(=N)N)C(=O)N[C@H]1CSSC[C@@H](C(N)=O)NC(=O)[C@H](Cc2ccccc2)NC(=O)[C@H](CCCNC(=N)N)NC(=O)[C@@H](Cc2ccccc2)NC(=O)[C@H](CCCN)NC(=O)C(C)(C)NC1=O

target: T1, human MC4R receptor (human, UniProt P32245 1-332); test: cell-based or functional assay
T1 sequence (P32245 whole entry): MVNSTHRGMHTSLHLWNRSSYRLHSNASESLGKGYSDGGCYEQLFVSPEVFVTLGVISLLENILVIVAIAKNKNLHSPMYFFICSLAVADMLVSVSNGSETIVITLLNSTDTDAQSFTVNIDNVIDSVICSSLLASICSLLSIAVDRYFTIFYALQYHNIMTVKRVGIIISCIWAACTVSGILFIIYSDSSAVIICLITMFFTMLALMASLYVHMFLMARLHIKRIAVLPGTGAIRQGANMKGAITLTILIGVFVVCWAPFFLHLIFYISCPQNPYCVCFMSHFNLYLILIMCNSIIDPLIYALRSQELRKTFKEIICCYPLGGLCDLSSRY

Compared with B1, B2 is lower in “MC4R selectivity vs MC3R” value: 23 for the first, 11 for the second.

Compared with B3, B4 is lower in “MC4R selectivity vs MC3R” value: over 154 for the first, 0.93 for the second.

Compared with B5, B6 is higher in “MC4R selectivity vs MC3R” value: 13 for the first, 21 for the second.

Compared with B7, B8 is lower in “MC4R selectivity vs MC3R” value: 3.78 for the first, 0.62 for the second.

Compared with B9, B10 is lower in “MC4R selectivity vs MC3R” value: 4.72 for the first, 0.11 for the second.

Compared with B11, B12 is higher in “MC4R selectivity vs MC3R” value: 2.3 for the first, over 3000 for the second.

Going from B13 to B14, the “MC4R selectivity vs MC3R” value rises from 11 to 12.

Going from B15 to B16, the “MC4R selectivity vs MC3R” value rises from 0.66 to 6.61.

Going from B17 to B18, the “MC4R selectivity vs MC3R” value falls from 9.23 to 0.95.

Compared with B19, B20 is lower in “MC4R selectivity vs MC3R” value: over 300 for the first, 3.44 for the second.

In order of falling “MC4R selectivity vs MC1R” value:
1. B13  111
2. B5  86
3. B14  47
4. B17  10
5. B9  4.15
6. B3  3.66
7. B10  3.66
8. B20  3.65
9. B8  2.99
10. B6  2.46
11. B18  2.07
12. B2  1.75
13. B7  1.51
14. B11  0.93
15. B12  0.52
16. B16  0.25
17. B19  0.14
18. B4  0.12
19. B15  0.03

target: T1, human MC4R receptor; test: cell-based or functional assay; remark: another data set of the same source

In order of falling “% max activation” value:
1. B2  102%
2. B13  102%
3. B1  101%
4. B5  99%
5. B11  97%
6. B12  97%
7. B20  97%
8. B9  96%
9. B10  96%
10. B4  93%
11. B7  93%
12. B8  92%
13. B14  91%
14. B6  90%
15. B15  90%
16. B17  88%
17. B19  85%
18. B18  79%
19. B3  78%
20. B16  67%

In order of rising “cAMP EC50” value:
1. B6  0.16 nM
2. B2  0.21 nM
3. B16  1.6 nM
4. B5  2.6 nM
5. B4  3.3 nM
6. B12  3.3 nM
7. B13  3.5 nM
8. B14  4.7 nM
9. B11  11 nM
10. B7  16 nM
11. B19  33 nM
12. B3  65 nM
13. B20  73 nM
14. B9  86 nM
15. B17  112 nM
16. B8  133 nM
17. B15  247 nM
18. B18  288 nM
19. B10  1520 nM

target: human MC3R (human, UniProt P41968 1-323); test: cell-based or functional assay
Sequence (P41968 whole entry): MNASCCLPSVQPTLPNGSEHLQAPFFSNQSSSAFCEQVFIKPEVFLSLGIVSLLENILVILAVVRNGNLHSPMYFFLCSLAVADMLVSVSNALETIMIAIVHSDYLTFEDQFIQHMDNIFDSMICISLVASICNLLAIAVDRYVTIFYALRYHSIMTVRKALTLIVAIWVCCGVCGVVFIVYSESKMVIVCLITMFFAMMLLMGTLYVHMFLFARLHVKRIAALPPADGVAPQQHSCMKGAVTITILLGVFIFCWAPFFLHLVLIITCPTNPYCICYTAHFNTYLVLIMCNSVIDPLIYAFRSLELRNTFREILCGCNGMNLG

In order of rising “% max activation” value:
1. B8  7.69%
2. B10  12%
3. B18  19%
4. B17  20%
5. B13  33%
6. B14  39%
7. B16  58%
8. B9  65%
9. B15  67%
10. B11  73%
11. B6  76%
12. B7  78%
13. B20  80%
14. B5  84%
15. B1  94%
16. B2  102%

First: B1
Second: B2
The “cAMP EC50” value of the first is 5.2-fold higher: 12 nM for the first, 2.3 nM for the second.

B3 and B4 cannot be ordered by “cAMP EC50” value: over 10000 nM for the first, over 10000 nM for the second.

First: B5
Second: B6
The “cAMP EC50” value of the first is 10-fold higher: 33 nM for the first, 3.3 nM for the second.

B7 and B8 are within 1.5-fold of each other in “cAMP EC50” value: 61 nM for the first, 82 nM for the second.

First: B9
Second: B10
The “cAMP EC50” value of the first is 2.4-fold higher: 407 nM for the first, 167 nM for the second.

First: B11
Second: B12
The “cAMP EC50” value of the first is lower: 26 nM for the first, over 10000 nM for the second.

B13 and B14 are within 1.5-fold of each other in “cAMP EC50” value: 40 nM for the first, 58 nM for the second.

Compared with B15, B16 is 15-fold lower in “cAMP EC50” value: 163 nM for the first, 11 nM for the second.

Going from B17 to B18, the “cAMP EC50” value falls from 1040 nM to 274 nM (3.8-fold).

Compared with B19, B20 is lower in “cAMP EC50” value: over 10000 nM for the first, 251 nM for the second.
